# Measurements published in PMC4004960.
# pKi: −log10 of the molar value.
# Target: BRD4-BD1 (recombinant, NMR and fluorescence anisotropy) (UniProt O60885)
# Assay: fluorescence polarisation
substance,measurement,value
Twist-K73ac/K76ac peptide (residues 68-79) (from UniProt Q15672 68-79),pKi,< 2.52
